Measurements reported in US20030059769.

Assays:
CD22beta (CD22b-Rg) = CD22beta (CD22b-Rg) (UniProt P20273); assay: filter
[1] = molecular target: T1, E-selectin (ES-Rg) (Homo sapiens) (UniProt P16581); assay: filter
T1 sequence: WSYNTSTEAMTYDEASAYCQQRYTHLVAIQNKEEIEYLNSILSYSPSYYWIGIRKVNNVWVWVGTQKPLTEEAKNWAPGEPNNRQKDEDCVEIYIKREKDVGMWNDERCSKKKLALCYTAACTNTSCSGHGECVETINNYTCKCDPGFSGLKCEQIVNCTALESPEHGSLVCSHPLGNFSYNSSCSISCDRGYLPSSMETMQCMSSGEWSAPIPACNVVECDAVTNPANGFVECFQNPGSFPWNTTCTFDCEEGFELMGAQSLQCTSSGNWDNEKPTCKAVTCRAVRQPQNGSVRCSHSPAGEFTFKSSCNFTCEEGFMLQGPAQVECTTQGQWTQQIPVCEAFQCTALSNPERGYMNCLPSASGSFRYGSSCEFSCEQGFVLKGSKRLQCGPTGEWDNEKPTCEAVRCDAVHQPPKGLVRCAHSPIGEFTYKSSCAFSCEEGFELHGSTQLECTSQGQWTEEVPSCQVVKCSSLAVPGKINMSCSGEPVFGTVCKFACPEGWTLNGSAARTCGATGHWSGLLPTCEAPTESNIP

[2] = molecular target: T2, L-selectin (LS-Rg) (Homo sapiens) (UniProt P14151); assay: filter
T2 sequence: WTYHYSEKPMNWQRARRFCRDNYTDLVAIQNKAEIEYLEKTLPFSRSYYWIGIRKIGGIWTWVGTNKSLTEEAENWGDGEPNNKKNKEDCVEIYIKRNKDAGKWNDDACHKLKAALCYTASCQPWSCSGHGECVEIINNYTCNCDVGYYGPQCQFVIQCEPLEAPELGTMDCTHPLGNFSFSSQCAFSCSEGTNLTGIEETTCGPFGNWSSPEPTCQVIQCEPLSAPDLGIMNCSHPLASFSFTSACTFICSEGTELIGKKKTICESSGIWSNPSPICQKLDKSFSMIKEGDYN

[3] = molecular target: T3, P-selectin (PS-Rg) (Homo sapiens) (UniProt P16109); assay: filter
T3 sequence: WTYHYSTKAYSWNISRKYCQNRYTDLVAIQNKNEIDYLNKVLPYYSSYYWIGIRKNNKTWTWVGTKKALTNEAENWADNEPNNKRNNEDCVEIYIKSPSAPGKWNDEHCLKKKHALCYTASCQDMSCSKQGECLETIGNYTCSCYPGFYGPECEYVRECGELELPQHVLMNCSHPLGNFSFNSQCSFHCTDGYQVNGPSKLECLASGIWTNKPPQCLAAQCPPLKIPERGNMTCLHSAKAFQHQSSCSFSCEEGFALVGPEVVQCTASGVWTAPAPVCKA

[4] = molecular target: T4, L-selectin on PBMC / lymphocytes (Homo sapiens) (UniProt P14151); settings: 2'-NH2 on all C and U; PBMC binding on ice; competed by DREG-56
T4 sequence: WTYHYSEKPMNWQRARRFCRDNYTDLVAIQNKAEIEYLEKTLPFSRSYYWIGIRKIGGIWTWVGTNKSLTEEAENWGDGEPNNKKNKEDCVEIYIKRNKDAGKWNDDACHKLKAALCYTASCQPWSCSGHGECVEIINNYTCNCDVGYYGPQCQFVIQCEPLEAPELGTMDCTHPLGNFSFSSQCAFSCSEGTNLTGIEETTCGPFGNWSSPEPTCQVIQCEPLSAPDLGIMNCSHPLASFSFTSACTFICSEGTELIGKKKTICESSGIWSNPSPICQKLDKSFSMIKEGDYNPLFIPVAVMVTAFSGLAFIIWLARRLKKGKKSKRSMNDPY

[5] = molecular target: T2, L-selectin (LS-Rg) (Homo sapiens); assay: inhibition; settings: 2'-NH2 C and U; sialyl-LewisX competition ELISA
[6] = molecular target: T5, Wheat germ agglutinin (WGA) (Triticum vulgare) (UniProt P10968); assay: filter
T5 sequence: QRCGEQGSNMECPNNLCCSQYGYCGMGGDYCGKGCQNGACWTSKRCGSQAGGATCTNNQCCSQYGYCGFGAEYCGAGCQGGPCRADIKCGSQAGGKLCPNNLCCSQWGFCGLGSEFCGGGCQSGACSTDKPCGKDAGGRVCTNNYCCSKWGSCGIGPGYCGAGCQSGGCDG

[7] = test system: Datura stramonium lectin (Datura stramonium); assay: filter
[8] = molecular target: T6, soluble L-selectin (Homo sapiens) (UniProt P14151); assay: filter; settings: 2'-F C and U, 37 C
T6 sequence: T2 sequence

[9] = 2'-NH2 on all C and U, 4 C, HSMC
[10] = 2'-NH2 C and U, <5% bound at 1 uM
[11] = 2'-NH2 C and U, HBSS, room temperature

GGGAGGACGAUGCGGUCCAGAGCGUGAAGAUCAACGUCCCGGNGUCGAAGACAGACGACUCGCCCGA [F14.70]
Kd (CD22beta (CD22b-Rg); 2'-NH2 C and U, <5% bound, 4 C): > 20 µM | Kd ([1]; 2'-NH2 C and U, HSMC, 4 C): 5.9 µM | Kd ([2]; 2'-NH2 on all C and U, 4 C, biphasic, fraction 0.75, second Kd 254 nM): 2 nM

GGGAGACAAGAAUAAACGCUCAAAUCAACUAAACAACGCAGUCACGAGAACGACCGGKCUGACUCCGAAAGUUCGACAGGAGGCUCACAACAGGC [PA448]
Kd ([3]; 2'-NH2 on all C and U, 37 C): 5 nM

GGGAGGACGAUGCGGUAACAACAAUCAAGGCGGGUUYACCGCCCCAGUAUGAGUACAGACGACUCGCCCGA [F14.12]
Kd [4]: 0.0013 µM | Kd [3, 9]: 910 nM | Kd (CD22beta (CD22b-Rg); 2'-NH2 on all C and U, <5% bound at 660 nM protein): > 20 µM | Kd [1, 9]: 0.047 µM | Kd ([2]; 2'-NH2 on all C and U, 4 C, HSMC (Ca, Mg), Table 9 prints 5.8 pM (4 C), 1.7 nM room temp): 0.06 nM | IC50 [5]: 0.01 µM

GGGAAAAGCGAAUCAUACACAAGANNNNNNNNNNNNNNNNNNNNNNNNNNNNNNNNNNNNNNNNNNNNNNNNNNGCUCCGCCAGAGACCAACCGAGAA [50N9 random 2'-NH2 RNA]
Kd ([6]; 2'-NH2 on all C and U, undetectable at 36 uM WGA monomer, p130 prints >4 uM): > 4000 µM

GGGAGACAAGAAUAAACGCUCAANNNGAGGAAGGGCACGCAAGGAAACAAAACACAAAGCAGAAGUAGUAAGAUUCGACAGGAGGCUCACAACAGGC [PA465]
Kd ([3]; 2'-NH2 C and U, 37 C): > 50 nM

GGGAGACAAGAAAUAAACNCUCAAGCCCCAAACGCAAGUGAGCAUCCGCAACAGGGAAGAAGACAGAUGAAUGAUUCGACAGGAGGCUCACAACAGGC [PA466]
Kd ([3]; 2'-NH2 C and U, 37 C): 0.43 nM

GGGAAAAGCGAAUCAUACACAAGACGGCUGUGUGGUGUUGGAGCGUCAUAGUAGGAGUCGUCACGAACCAAGGCGCUCCGCCAGAGACCAACCGAGAA [WGA ligand 11.24]
Kd [7, 10]: > 20 µM

GGGAAAAGCGAAUCAUACACAAGACUGGCAAGRAGUGCGUGAGGGUACGUUAGGGGUGUUUGGGCCGAUCGCAUGCUCCGCCAGAGACCAACCGAGAA [WGA ligand 11.7]
Kd ([6]; 2'-NH2 on all C and U, HBSS, room temperature): 0.016 µM

GGGAGGACGAUGCGGCCGUACAUGGUAARCCUCGAAGGAUUCCCGGGAUGAUCCCCAGACGACUCGCCCGA [F14.27]
Kd ([2]; 2'-NH2 C and U, HSMC, 4 C): 145 nM

GGGAGGACGAUGCGGACGUGUGUAUCRARUUUUCCGCUGUUUGUGCAGACGACUCGCCCGA [LF1718]
Kd [8]: 0.0064 µM

GGGAGACAAGAAUAAACNCUCAACGAAAUAGAAGGAACAGAAGAAUGGBGAWGNGGGAAAUGGCAACGAAUUCGACAGGNGGCUCACAACAGGC [PA321]
Kd ([3]; 2'-NH2 C and U, 37 C): 8 nM

GGGAGACAAGAAUAAACGCUCAAAAGGUGCCGGGUUGGAGGGGUAGCAAGAAAUGGCUAGGGCGCASGAUUCGACAGGNGGCUCACAACAGGC [PA339]
Kd ([3]; 2'-NH2 C and U, 37 C): 13.5 nM

CTACCTACGATCTGACTAGCCGAGGATCTGATACTTATTGAACATAMCCGCACNCAGGCTTGCTTACTCTCATGTAGTTCC [LD102]
Kd ([2]; 37 C): 7.9 nM

GGGAGGACGAUGCGGGAGGAAUGGACWGCGUAUAUCGAGUUGCCUCAGACGACUCGCCCGA [LF1713]
Kd ([8]; table prints SEQ 338): 0.00022 µM

GGGAGGACGAUGCGGUUAGCCUACACUCUAGGUUCAGUUUUCGAAUCUUCCACCGCWGACGACUCGCCCGA [LF1618]
Kd ([2]; 2'-F on all C and U, 37 C): 9.6 nM

GGGAAAAGCGAAUCAUACACAAGACAGCGGCGGAGUCAGUGAAAGCGUGGGGGGYGCGGGAGGUCUACCCUGACGCUCCGCCAGAGACCAACCGAGAA [WGA ligand 6.14]
Kd ([6]; 2'-NH2 on all C and U, <5% bound at 1 uM WGA, estimate): > 20 µM

GGGAGGACGAUGCGGAUAYUCAGCUYGUGUKUUUUCDAUCUUCCCCAGACGACUCGCCCGA [LF1707]
Kd [8]: 0.00016 µM

GGGAGACAAGAAUAAACGCUCAAGUACRCAGUGAGCAGAAGCAGAGAGACUUGGGAUGGGAUGAAAUGGKCUUCGACAGGAGGCUCACAACAGGC [PA467]
Kd ([3]; 2'-NH2 C and U, 37 C): 24 nM

GGGAAAAGCGAAUCAUACACAAGAAAGGGAUGGGAUUGGGACGAGCGGCCAAGACUCGGCGGGAACGAAGGGUCCGCUCCGCCAGAGACCAACCGAGAA [WGA ligand 6.8]
Kd [7, 10]: > 20 µM

GGGAGGACGAUGCGGAAGUGAAGCUAAAGSGGAGGGCCACUCAGAAACGCACCACAGACGACUCGCCCGA [F14.13]
Kd ([2]; 2'-NH2 C and U, 4 C, biphasic (0.74), low affinity 270 nM): 1.3 nM

GGGAGACAAGAAUAAACGCUCAACGAGUUCACAUGGGAGCAAUCUCCGAAUAAACAACACGCKAKCGCAAAUUCGACAGGAGGCUCACAACAGGC [PF424]
Kd ([3]; 2'-F C and U, HSMC, 37 C): 0.0365 nM

GGGAAAAGCGAAUCAUACACAAGAUUGGUCGUACUGGACAGAGCCGUGGUAGAGGGAUUGGGACAAAGUGUCAGCUCCGCCAGAGACCAACCGAGAA [WGA ligand 11.20]
Kd ([7]; 2'-NH2 on all C and U, specificity control): 11.2 µM

GGGAAAAGCGAAUCAUACACAAGAGUAGGAGGUUCCAUCACCAGGACUCGGCGGGAACGGAAGGUGAUGSGCUCCGCCAGAGACCAACCGAGAA [WGA ligand 11.35]
Kd [6, 11]: 0.09 µM

GGGAGACAAGAAUAAACNCUCAAGCCCCAAGCAAGUGAGCAUCCGCAACAGGGAAGAAGACAGACGAGUGAUUCGACAGGAGGCUCACAACAGGC [PA473]
Kd ([3]; 2'-NH2 C and U, 37 C): 0.36 nM

GGGAAAAGCGAAUCAUACACAAGAGAGGUGRAUGGGAGAGUGGAGCCCGGGUGACUCGAGGAUUCCCGUGCUCCGCCAGAGACCAACCGAGAA [WGA ligand 11.3]
Kd [6, 11]: 0.41 µM

CTACCTACGATCTGACTAGCCGAGGTAGTCGTTATAGGGTRCRCACGACACAAARCRGTRGCTTACTCTCATGTAGTTCC [LD127]
Kd ([6]; <3% at […]): > 100 µM | Kd ([3]; room temperature): 780 nM | Kd (CD22beta (CD22b-Rg); <1% at 700 nM): > 100 µM | Kd ([1]; room temperature): 1.3 µM | Kd ([2]; room temp, 890 pM at 37 C): 1 nM

GGGAGGACGAUGCGGAAGUGAAGCUAAAGCGGAGGGCCAUUCAGUUUCNCACCACAGACGACUCGCCCGA [F14.2]
Kd ([3]; 2'-NH2 C and U, HSMC, 4 C): 450 nM | Kd (CD22beta (CD22b-Rg); 2'-NH2 C and U, <5% bound, 4 C): > 20 µM | Kd ([1]; 2'-NH2 C and U, HSMC, 4 C): 1.9 µM | Kd ([2]; 2'-NH2 on all C and U, 4 C, 7.2 nM at room temp): 1.8 nM

GGGAGGACGAUGCGGNNNNNNNNNNNNNNNNNNNNNNNNNNNNNNNNNNNNNNNNCAGACGACUCGCCCGA [40N7 random 2'-NH2 RNA]
Kd ([2]; 2'-NH2 on all C and U, random pool, estimate): 10000 nM
